Experimental data reported in the supplement of paper PMC7877785.
± gives the uncertainty stated by the source.

Experiment: self-splicing fitness, log relative to wild type (ln ratio); higher = more splicing; Tetrahymena group I intron in knt gene, E. coli kanamycin selection, DiMSum; sequences stand for … in CUCUCU…GGAGGGAAAAGUUAUCAGGCAUGCACCUGGUAGCUAGUCUUUAAACCAAUAGAUUGCAUCGGUUUAAAAGGCAAGACCGUCAAAUUGCGGGAAAGGGGUCAACAGCCGUUCAGUACCAAGUCUCAGGGGAAACUUUGAGAUGGCCUUGCAAAGGGUAUGGUAAUAAGCUGACGGACAUGGUCCUAACCACGCAGCCAAGUCCUAAGUCAACAGAUCUUCUGUUGAUAUGGAUGCAGUUCACAGACUAAAUGUCGGUCGGGGAAGAUGUAUUCUUCUCAUAAGAUAUAGUCGGACCUCUCCUUAAUGGGAGCUAGCGGAUGAAGUGAUGCAACACUGGAGCCGCUGGGAACUAAUUUGUAUGCGAAAGUAUAUUGAUUAGUUUUGGAGUACUCGUGGUCG
Method in brief: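 The eight P1ex-region nucleotides of an intron in the knt kanamycin-resistance gene on pET-22b(+) were all randomised and the library put into E. coli BL21(DE3). Six replicate transformations were grown overnight at 37°C or 30°C on LB agar with or without 25 μg/mL kanamycin, together with 100 μg/mL carbenicillin, 50 μM IPTG and 0.2% rhamnose. Colonies were pooled and amplicon-sequenced on an Illumina HiSeq 2500. Fitness from DiMSum is the error-weighted combination of wild-type-normalised replicate fold changes, kanamycin over none.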

GAUCAGCAAUAUUACGUAGU
self-splicing fitness (ln) (30 °C): -0.663 ± 0.1
self-splicing fitness (ln) (37 °C): -0.885 ± 0.1

GAUCAGCAAUAUUACGUCAU
self-splicing fitness (ln) (30 °C): -1.53 ± 0.094
self-splicing fitness (ln) (37 °C): -0.393 ± 0.1

GAUCAGCAAUAUUACGUCGA
self-splicing fitness (ln) (30 °C): -1.35 ± 0.084
self-splicing fitness (ln) (37 °C): -0.202 ± 0.096

GAUCAGCAAUAUUACGUGCA
self-splicing fitness (ln) (30 °C): -0.293 ± 0.072
self-splicing fitness (ln) (37 °C): -0.489 ± 0.085

GAUCAGCAAUAUUACGUGGC
self-splicing fitness (ln) (30 °C): -2.95 ± 0.21
self-splicing fitness (ln) (37 °C): -0.582 ± 0.15

GAUCAGCAAUAUUACGUUCC
self-splicing fitness (ln) (37 °C): -2.85 ± 0.4

GAUCAGCAAUAUUACGUUCU
self-splicing fitness (ln) (30 °C): -2.42 ± 0.1
self-splicing fitness (ln) (37 °C): -1.46 ± 0.12

GAUGAGCAAUAUUACGAGGG
self-splicing fitness (ln) (37 °C): -2.15 ± 0.22

GAUGAGCAAUAUUACGAUCA
self-splicing fitness (ln) (30 °C): -2.17 ± 0.24
self-splicing fitness (ln) (37 °C): -1.31 ± 0.21

GAUGAGCAAUAUUACGAUCG
self-splicing fitness (ln) (30 °C): -1.9 ± 0.35
self-splicing fitness (ln) (37 °C): -2.32 ± 0.24

GAUGAGCAAUAUUACGAUUA
self-splicing fitness (ln) (30 °C): -2.57 ± 0.21
self-splicing fitness (ln) (37 °C): -1.4 ± 0.18

GAUGAGCAAUAUUACGCAAU
self-splicing fitness (ln) (30 °C): -4.35 ± 0.34
self-splicing fitness (ln) (37 °C): -2.46 ± 0.19

GAUGAGCAAUAUUACGCACU
self-splicing fitness (ln) (30 °C): -2.71 ± 0.22
self-splicing fitness (ln) (37 °C): -1.04 ± 0.2

GAUGAGCAAUAUUACGCAGG
self-splicing fitness (ln) (37 °C): -2.24 ± 0.43

GAUGAGCAAUAUUACGCCCG
self-splicing fitness (ln) (30 °C): -3 ± 0.36
self-splicing fitness (ln) (37 °C): -2.08 ± 0.43

GAUGAGCAAUAUUACGCCUA
self-splicing fitness (ln) (30 °C): -1.7 ± 0.29
self-splicing fitness (ln) (37 °C): -0.51 ± 0.26

GAUGAGCAAUAUUACGCCUG
self-splicing fitness (ln) (30 °C): -1.57 ± 0.26
self-splicing fitness (ln) (37 °C): -2.53 ± 0.41

GAUGAGCAAUAUUACGCGUG
self-splicing fitness (ln) (30 °C): -0.71 ± 0.14
self-splicing fitness (ln) (37 °C): -1.14 ± 0.16

GAUGAGCAAUAUUACGCUGU
self-splicing fitness (ln) (30 °C): -3.68 ± 0.26
self-splicing fitness (ln) (37 °C): -2.35 ± 0.26

GAUGAGCAAUAUUACGGAUG
self-splicing fitness (ln) (30 °C): -2.78 ± 0.19
self-splicing fitness (ln) (37 °C): -2.89 ± 0.26

GAUGAGCAAUAUUACGGCAA
self-splicing fitness (ln) (30 °C): -0.812 ± 0.26
self-splicing fitness (ln) (37 °C): -2.35 ± 0.37

GAUGAGCAAUAUUACGGCAC
self-splicing fitness (ln) (30 °C): -0.478 ± 0.098
self-splicing fitness (ln) (37 °C): -0.366 ± 0.16

GAUGAGCAAUAUUACGGGCA
self-splicing fitness (ln) (30 °C): -1.87 ± 0.2
self-splicing fitness (ln) (37 °C): -1.88 ± 0.28

GAUGAGCAAUAUUACGGGUG
self-splicing fitness (ln) (30 °C): -2.68 ± 0.2
self-splicing fitness (ln) (37 °C): -3.32 ± 0.28

GAUGAGCAAUAUUACGGUCC
self-splicing fitness (ln) (30 °C): -3.29 ± 0.2
self-splicing fitness (ln) (37 °C): -2.27 ± 0.36

GAUGAGCAAUAUUACGUAAG
self-splicing fitness (ln) (30 °C): -3.37 ± 0.24
self-splicing fitness (ln) (37 °C): -2.11 ± 0.2

GAUGAGCAAUAUUACGUAGA
self-splicing fitness (ln) (30 °C): -3.51 ± 0.24
self-splicing fitness (ln) (37 °C): -1.88 ± 0.2

GAUGAGCAAUAUUACGUCGC
self-splicing fitness (ln) (30 °C): -4.14 ± 0.29
self-splicing fitness (ln) (37 °C): -2.7 ± 0.26

GAUGAGCAAUAUUACGUGGC
self-splicing fitness (ln) (30 °C): -3.24 ± 0.22
self-splicing fitness (ln) (37 °C): -2.59 ± 0.26

GAUGAGCAAUAUUACGUUAG
self-splicing fitness (ln) (30 °C): -3.42 ± 0.24
self-splicing fitness (ln) (37 °C): -1.81 ± 0.23

GAUGAGCAAUAUUACGUUAU
self-splicing fitness (ln) (30 °C): -3.98 ± 0.23
self-splicing fitness (ln) (37 °C): -1.77 ± 0.16

GAUGAGCAAUAUUACGUUGG
self-splicing fitness (ln) (30 °C): -3.65 ± 0.3
self-splicing fitness (ln) (37 °C): -2.2 ± 0.32

GAUGAGCAAUAUUACGUUUA
self-splicing fitness (ln) (30 °C): -3.13 ± 0.29
self-splicing fitness (ln) (37 °C): -2.75 ± 0.23

GAUGAGCAAUAUUACGUUUG
self-splicing fitness (ln) (30 °C): -3.24 ± 0.21
self-splicing fitness (ln) (37 °C): -2.77 ± 0.26

GAUUAGCAAUAUUACGACGA
self-splicing fitness (ln) (30 °C): -1.23 ± 0.3
self-splicing fitness (ln) (37 °C): -0.273 ± 0.2

GAUUAGCAAUAUUACGAGAU
self-splicing fitness (ln) (30 °C): -3.12 ± 0.14
self-splicing fitness (ln) (37 °C): -3.26 ± 0.19

GAUUAGCAAUAUUACGCAUA
self-splicing fitness (ln) (30 °C): -2.08 ± 0.17
self-splicing fitness (ln) (37 °C): -0.967 ± 0.14

GAUUAGCAAUAUUACGCCGA
self-splicing fitness (ln) (30 °C): -1.03 ± 0.42

GAUUAGCAAUAUUACGGAAA
self-splicing fitness (ln) (30 °C): -2.25 ± 0.29
self-splicing fitness (ln) (37 °C): -2.19 ± 0.22

GAUUAGCAAUAUUACGGCCA
self-splicing fitness (ln) (30 °C): -1.41 ± 0.19
self-splicing fitness (ln) (37 °C): 0.41 ± 0.21

GAUUAGCAAUAUUACGGGUA
self-splicing fitness (ln) (30 °C): -1.98 ± 0.13
self-splicing fitness (ln) (37 °C): -1.04 ± 0.12

GAUUAGCAAUAUUACGUAGA
self-splicing fitness (ln) (30 °C): -1.92 ± 0.15
self-splicing fitness (ln) (37 °C): -0.933 ± 0.14

GCAAAGCAAUAUUACGAAGC
self-splicing fitness (ln) (30 °C): -1.83 ± 0.25
self-splicing fitness (ln) (37 °C): -2.28 ± 0.34

GCAAAGCAAUAUUACGACAG
self-splicing fitness (ln) (30 °C): -3.2 ± 0.18
self-splicing fitness (ln) (37 °C): -2.68 ± 0.23

GCAAAGCAAUAUUACGAGAC
self-splicing fitness (ln) (37 °C): -2.63 ± 0.43

GCAAAGCAAUAUUACGAUCG
self-splicing fitness (ln) (30 °C): -1.52 ± 0.067
self-splicing fitness (ln) (37 °C): -0.0765 ± 0.091

GCAAAGCAAUAUUACGAUUA
self-splicing fitness (ln) (30 °C): -0.0977 ± 0.11
self-splicing fitness (ln) (37 °C): -1.13 ± 0.13

GCAAAGCAAUAUUACGAUUG
self-splicing fitness (ln) (30 °C): -3.55 ± 0.21
self-splicing fitness (ln) (37 °C): -1.28 ± 0.15

GCAAAGCAAUAUUACGCACA
self-splicing fitness (ln) (30 °C): -0.917 ± 0.12
self-splicing fitness (ln) (37 °C): -0.182 ± 0.14

GCAAAGCAAUAUUACGCAUC
self-splicing fitness (ln) (30 °C): -1.98 ± 0.16
self-splicing fitness (ln) (37 °C): -1.4 ± 0.17

GCAAAGCAAUAUUACGCCCA
self-splicing fitness (ln) (30 °C): -1.56 ± 0.16
self-splicing fitness (ln) (37 °C): -0.194 ± 0.15

GCAAAGCAAUAUUACGCCGU
self-splicing fitness (ln) (30 °C): -2.85 ± 0.21
self-splicing fitness (ln) (37 °C): -2.46 ± 0.23

GCAAAGCAAUAUUACGCCUA
self-splicing fitness (ln) (30 °C): -3.76 ± 0.42
self-splicing fitness (ln) (37 °C): -1.11 ± 0.21

GCAAAGCAAUAUUACGCGUC
self-splicing fitness (ln) (30 °C): -2.92 ± 0.28
self-splicing fitness (ln) (37 °C): -1.94 ± 0.32

GCAAAGCAAUAUUACGCUAG
self-splicing fitness (ln) (30 °C): -2.78 ± 0.088
self-splicing fitness (ln) (37 °C): -2.51 ± 0.084

GCAAAGCAAUAUUACGCUCG
self-splicing fitness (ln) (30 °C): -0.748 ± 0.17
self-splicing fitness (ln) (37 °C): -0.86 ± 0.24

GCAAAGCAAUAUUACGCUCU
self-splicing fitness (ln) (30 °C): -1.27 ± 0.075
self-splicing fitness (ln) (37 °C): -0.565 ± 0.097

GCAAAGCAAUAUUACGCUUA
self-splicing fitness (ln) (30 °C): -2.59 ± 0.15
self-splicing fitness (ln) (37 °C): -1.46 ± 0.12

GCAAAGCAAUAUUACGGCUU
self-splicing fitness (ln) (30 °C): -1.48 ± 0.11
self-splicing fitness (ln) (37 °C): -0.763 ± 0.15

GCAAAGCAAUAUUACGGUAA
self-splicing fitness (ln) (30 °C): -0.837 ± 0.12
self-splicing fitness (ln) (37 °C): -0.921 ± 0.13

GCAAAGCAAUAUUACGGUGG
self-splicing fitness (ln) (30 °C): -2.27 ± 0.12
self-splicing fitness (ln) (37 °C): -2.43 ± 0.19

GCAAAGCAAUAUUACGUCUA
self-splicing fitness (ln) (30 °C): -0.983 ± 0.13
self-splicing fitness (ln) (37 °C): -0.637 ± 0.11

GCAAAGCAAUAUUACGUGAC
self-splicing fitness (ln) (30 °C): -2.78 ± 0.12
self-splicing fitness (ln) (37 °C): -1.1 ± 0.13

GCAAAGCAAUAUUACGUGGG
self-splicing fitness (ln) (30 °C): -3.38 ± 0.15
self-splicing fitness (ln) (37 °C): -3.07 ± 0.16

GCAAAGCAAUAUUACGUGUU
self-splicing fitness (ln) (30 °C): -1.88 ± 0.086
self-splicing fitness (ln) (37 °C): -1.03 ± 0.11

GCAAAGCAAUAUUACGUUGA
self-splicing fitness (ln) (30 °C): -1.67 ± 0.088
self-splicing fitness (ln) (37 °C): -1.03 ± 0.094

GCACAGCAAUAUUACGACGA
self-splicing fitness (ln) (30 °C): -0.897 ± 0.13
self-splicing fitness (ln) (37 °C): 0.243 ± 0.15

GCACAGCAAUAUUACGACGU
self-splicing fitness (ln) (30 °C): -0.591 ± 0.073
self-splicing fitness (ln) (37 °C): -0.0751 ± 0.088

GCACAGCAAUAUUACGAGGG
self-splicing fitness (ln) (30 °C): -1.9 ± 0.091
self-splicing fitness (ln) (37 °C): -1.14 ± 0.14

GCACAGCAAUAUUACGAGGU
self-splicing fitness (ln) (30 °C): -1.85 ± 0.095
self-splicing fitness (ln) (37 °C): 0.0148 ± 0.11

GCACAGCAAUAUUACGAUGU
self-splicing fitness (ln) (30 °C): -2.05 ± 0.079
self-splicing fitness (ln) (37 °C): -0.389 ± 0.088

GCACAGCAAUAUUACGAUUU
self-splicing fitness (ln) (30 °C): -0.869 ± 0.042
self-splicing fitness (ln) (37 °C): -0.0519 ± 0.058

GCACAGCAAUAUUACGCAAG
self-splicing fitness (ln) (30 °C): -3.59 ± 0.24
self-splicing fitness (ln) (37 °C): -2.51 ± 0.19

GCACAGCAAUAUUACGCCAA
self-splicing fitness (ln) (30 °C): -3.77 ± 0.25
self-splicing fitness (ln) (37 °C): -2.56 ± 0.2

GCACAGCAAUAUUACGCCUA
self-splicing fitness (ln) (30 °C): -0.82 ± 0.13
self-splicing fitness (ln) (37 °C): -0.373 ± 0.11

GCACAGCAAUAUUACGCGAC
self-splicing fitness (ln) (30 °C): -1.75 ± 0.13
self-splicing fitness (ln) (37 °C): -1.18 ± 0.16
